From publication PMC5887453 (Nucleic Acids Research, 2018)
Substitutions are numbered along the chain they refer to.

How the values were obtained:
PhoEF-2 M219S = molecular target: T1, PhoEF-2 M219S (Pyrococcus horikoshii, UniProt O59521 1-732, M219S); test: native gel or EMSA
T1 sequence (looked up): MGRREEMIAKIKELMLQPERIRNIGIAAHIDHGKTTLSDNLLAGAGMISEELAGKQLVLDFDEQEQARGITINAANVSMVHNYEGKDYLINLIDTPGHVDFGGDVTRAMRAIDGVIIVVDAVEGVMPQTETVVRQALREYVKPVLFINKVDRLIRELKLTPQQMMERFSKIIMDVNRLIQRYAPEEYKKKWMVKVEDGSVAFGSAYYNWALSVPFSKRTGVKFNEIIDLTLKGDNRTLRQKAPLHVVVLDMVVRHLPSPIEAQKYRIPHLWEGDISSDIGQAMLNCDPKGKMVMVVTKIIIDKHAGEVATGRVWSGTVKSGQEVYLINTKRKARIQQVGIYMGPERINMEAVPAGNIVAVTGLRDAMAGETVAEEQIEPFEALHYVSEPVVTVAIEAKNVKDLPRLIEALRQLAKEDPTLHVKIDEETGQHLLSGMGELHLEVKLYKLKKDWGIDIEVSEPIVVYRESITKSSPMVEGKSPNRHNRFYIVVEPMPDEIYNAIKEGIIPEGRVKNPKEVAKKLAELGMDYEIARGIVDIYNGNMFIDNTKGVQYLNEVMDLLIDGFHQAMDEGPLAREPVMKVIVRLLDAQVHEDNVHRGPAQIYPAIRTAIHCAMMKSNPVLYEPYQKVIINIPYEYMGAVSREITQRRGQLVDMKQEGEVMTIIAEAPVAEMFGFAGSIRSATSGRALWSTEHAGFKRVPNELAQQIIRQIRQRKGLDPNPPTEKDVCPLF

PhoEF-2 F205S = molecular target: T2, PhoEF-2 F205S (Pyrococcus horikoshii, UniProt O59521 1-732, F205S); test: native gel or EMSA
T2 sequence (looked up): T1 sequence (looked up) with F202S, S216M

B1: Pyrococcus horikoshii ribosomal stalk protein P1 (natural protein, UniProt O57705 1-108, looked up)
chain: MEYVYAALLLHSVGKEINEENLKAVLQAAGVEPEEARIKALVAALEGVNIDEVIEKAAMPVAVAAAPAAAPAEAGGEEKKEEEKKEEEEKEEEVSEEEALAGLSALFG
modifications: in the SPR only: biotin on amino groups via a PEG linker (EZ-Link NHS-PEG4-Biotin)
binding result (PhoEF-2 M219S): binds
binding result (PhoEF-2 F205S): binds
